# Laboratory results reported in patent publication US20260209348A1 (University of California, published 2026).
# Biological target: T1, human ROR2 (human, UniProt Q01974 34-403, limits assumed)
# Experiment: SPR
# Summary of the method: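 Humanized anti-human ROR2 monoclonal antibodies were tested for binding to human ROR2 by surface plasmon resonance. The antibodies were made by grafting murine complementarity-determining regions into human acceptor frameworks, with the constant region converted to human IgG1. Binding affinity is reported as the dissociation constant (Kd) in nM. Antigen format, concentrations, temperature, buffer and replicates are not stated.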
# T1 sequence (Q01974 34-403 limits assumed): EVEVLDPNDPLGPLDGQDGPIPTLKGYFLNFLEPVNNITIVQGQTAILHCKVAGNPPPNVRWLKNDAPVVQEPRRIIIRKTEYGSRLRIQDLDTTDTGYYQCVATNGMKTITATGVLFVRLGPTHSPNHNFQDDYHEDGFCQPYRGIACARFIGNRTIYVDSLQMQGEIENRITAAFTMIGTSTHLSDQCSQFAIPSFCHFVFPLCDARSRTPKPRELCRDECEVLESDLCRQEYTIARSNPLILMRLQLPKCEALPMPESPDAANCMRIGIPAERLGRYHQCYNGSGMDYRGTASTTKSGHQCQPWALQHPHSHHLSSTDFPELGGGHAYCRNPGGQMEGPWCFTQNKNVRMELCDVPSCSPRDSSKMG
row,Binder,Kd [nM]
1,"h6E6-115 (antibody, V domains shown, also called clone 115) VH: EVQLVESGGGLVKPGGSLRLSCAASGFTFSGYGMSWVRQAPGKGLEWVSTISSGGGYTHYVTSVKGRFTISRDNAKNSLYLQMNSLRAEDTAVYYCARHPRDFSYALDYWGQGTTVTVSS VL: EIVMTQSPATLSVSPGERATLSCRASQDVGHYLAWYQQKPGQAPRLLIYWASTRATGIPARFSGSGSGTEFTLTISSLQSEDFAVYYCQQYNIYPWTFGQGTKVEIK",0.187
2,"h6E6-110 (antibody, V domains shown, also called clone 110) VH: EVQLVESGGGLVKPGGSLRLSCAASGFTFSHYGVSWVRQAPGKGLEWVSTISSGGGYTHYAESVKGRFTISRDNAKNSLYLQMNSLRAEDTAVYYCARHPRDFSYAQDYWGQGTTVTVSS VL: EIVMTQSPATLSVSPGERATLSCRASQDVGHYLAWYQQKPGQAPRLLIYWASTRATGIPARFSGSGSGTEFTLTISSLQSEDFAVYYCQQYNIYPWTFGQGTKVEIK",0.073
3,"h6E6-117 (antibody, V domains shown, also called clone 117) VH: EVQLVESGGGLVKPGGSLRLSCAASGFTFSVYGISWVRQAPGKGLEWVSTISSGGGYTHYAPSVKGRFTISRDNAKNSLYLQMNSLRAEDTAVYYCARHPRDFSYAMDYWGQGTTVTVSS VL: EIVMTQSPATLSVSPGERATLSCKASQDVGHYVAWYQQKPGQAPRLLIYWASTRATGIPARFSGSGSGTEFTLTISSLQSEDFAVYYCQQYNIYPWTFGQGTKVEIK",0.323
4,"h6E6-109 (antibody, V domains shown, also called clone 109) VH: EVQLVESGGGLVKPGGSLRLSCAASGFTFSNYGTSWVRQAPGKGLEWVSTISSGGGYTHYVTSVKGRFTISRDNAKNSLYLQMNSLRAEDTAVYYCARHPRDFSYAMDYWGQGTTVTVSS VL: EIVMTQSPATLSVSPGERATLSCKASQDVGHYVAWYQQKPGQAPRLLIYWASTRATGIPARFSGSGSGTEFTLTISSLQSEDFAVYYCQQYNIYPWTFGQGTKVEIK",0.151

# Biological target: T1, human ROR2
# Experiment: SPR
# Remark: another data set of the same source
Binder,Kd [nM],binding result
"grafted humanized 6E6: VH3-21*01 (extended) + VK1-12*01 (IMGT) (antibody, V domains shown, expressed as IgG) VH: EVQLVESGGGLVKPGGSLRLSCAASGFTFSNYGMSWVRQAPGKGLEWVSTISSGGGYTHYVDSVKGRFTISRDNAKNSLYLQMNSLRAEDTAVYYCARHPRDFSYAMDYWGQGTTVTVSS VL: DIQMTQSPSSVSASVGDRVTITCRASQDVGHYLAWYQQKPGKAPKLLIYWASSLQSGVPSRFSGSGSGTDFTLTISSLQPEDFATYYCQQYNIYPWTFGQGTKVEIK",0.52,
"grafted humanized 6E6: VH3-11*03 (IMGT) + VK1-12*01 (extended) (antibody, V domains shown, expressed as IgG) VH: QVQLLESGGGLVKPGGSLRLSCAASGFTFSNYGMSWIRQAPGKGLEWVSYISSGGGYTNYADSVKGRFTISRDNAKNSLYLQMNSLRAEDTAVYYCARHPRDFSYAMDYWGQGTTVTVSS VL: DIQMTQSPSSVSASVGDRVTITCKASQDVGHYVAWYQQKPGKAPKLLIYWASTRHTGVPSRFSGSGSGTDFTLTISSLQPEDFATYYCQQYNIYPWTFGQGTKVEIK",162,
"grafted humanized 6E6: VH3-21*01 (extended) + VK1-8*01 (IMGT) (antibody, V domains shown, expressed as IgG) VH: EVQLVESGGGLVKPGGSLRLSCAASGFTFSNYGMSWVRQAPGKGLEWVSTISSGGGYTHYVDSVKGRFTISRDNAKNSLYLQMNSLRAEDTAVYYCARHPRDFSYAMDYWGQGTTVTVSS VL: AIRMTQSPSSFSASTGDRVTITCRASQDVGHYLAWYQQKPGKAPKLLIYWASTLQSGVPSRFSGSGSGTDFTLTISCLQSEDFATYYCQQYNIYPWTFGQGTKVEIK",10,
"grafted humanized 6E6: VH3-11*03 (IMGT) + VK3-15*01 (IMGT) (antibody, V domains shown, expressed as IgG) VH: QVQLLESGGGLVKPGGSLRLSCAASGFTFSNYGMSWIRQAPGKGLEWVSYISSGGGYTNYADSVKGRFTISRDNAKNSLYLQMNSLRAEDTAVYYCARHPRDFSYAMDYWGQGTTVTVSS VL: EIVMTQSPATLSVSPGERATLSCRASQDVGHYLAWYQQKPGQAPRLLIYWASTRATGIPARFSGSGSGTEFTLTISSLQSEDFAVYYCQQYNIYPWTFGQGTKVEIK",64,
"grafted humanized 6E6: VH3-21*01 (extended) + VK3-15*01 (IMGT) (antibody, V domains shown, expressed as IgG) VH: EVQLVESGGGLVKPGGSLRLSCAASGFTFSNYGMSWVRQAPGKGLEWVSTISSGGGYTHYVDSVKGRFTISRDNAKNSLYLQMNSLRAEDTAVYYCARHPRDFSYAMDYWGQGTTVTVSS VL: EIVMTQSPATLSVSPGERATLSCRASQDVGHYLAWYQQKPGQAPRLLIYWASTRATGIPARFSGSGSGTEFTLTISSLQSEDFAVYYCQQYNIYPWTFGQGTKVEIK",0.58,
"grafted humanized 6E6: VH3-21*01 (extended) + VK1-12*01 (extended) (antibody, V domains shown, expressed as IgG) VH: EVQLVESGGGLVKPGGSLRLSCAASGFTFSNYGMSWVRQAPGKGLEWVSTISSGGGYTHYVDSVKGRFTISRDNAKNSLYLQMNSLRAEDTAVYYCARHPRDFSYAMDYWGQGTTVTVSS VL: DIQMTQSPSSVSASVGDRVTITCKASQDVGHYVAWYQQKPGKAPKLLIYWASTRHTGVPSRFSGSGSGTDFTLTISSLQPEDFATYYCQQYNIYPWTFGQGTKVEIK",0.67,
"grafted humanized 6E6: VH3-11*03 (extended) + VK1-12*01 (extended) (antibody, V domains shown, expressed as IgG) VH: QVQLLESGGGLVKPGGSLRLSCAASGFTFSNYGMSWIRQAPGKGLEWVSTISSGGGYTHYVDSVKGRFTISRDNAKNSLYLQMNSLRAEDTAVYYCARHPRDFSYAMDYWGQGTTVTVSS VL: DIQMTQSPSSVSASVGDRVTITCKASQDVGHYVAWYQQKPGKAPKLLIYWASTRHTGVPSRFSGSGSGTDFTLTISSLQPEDFATYYCQQYNIYPWTFGQGTKVEIK",2.1,
"grafted humanized 6E6: VH3-11*03 (extended) + VK1-8*01 (IMGT) (antibody, V domains shown, expressed as IgG) VH: QVQLLESGGGLVKPGGSLRLSCAASGFTFSNYGMSWIRQAPGKGLEWVSTISSGGGYTHYVDSVKGRFTISRDNAKNSLYLQMNSLRAEDTAVYYCARHPRDFSYAMDYWGQGTTVTVSS VL: AIRMTQSPSSFSASTGDRVTITCRASQDVGHYLAWYQQKPGKAPKLLIYWASTLQSGVPSRFSGSGSGTDFTLTISCLQSEDFATYYCQQYNIYPWTFGQGTKVEIK",1.1,
"grafted humanized 6E6: VH3-11*03 (IMGT) + VK1-12*01 (IMGT) (antibody, V domains shown, expressed as IgG) VH: QVQLLESGGGLVKPGGSLRLSCAASGFTFSNYGMSWIRQAPGKGLEWVSYISSGGGYTNYADSVKGRFTISRDNAKNSLYLQMNSLRAEDTAVYYCARHPRDFSYAMDYWGQGTTVTVSS VL: DIQMTQSPSSVSASVGDRVTITCRASQDVGHYLAWYQQKPGKAPKLLIYWASSLQSGVPSRFSGSGSGTDFTLTISSLQPEDFATYYCQQYNIYPWTFGQGTKVEIK",178,
"grafted humanized 6E6: VH3-11*03 (extended) + VK3-15*01 (IMGT) (antibody, V domains shown, expressed as IgG) VH: QVQLLESGGGLVKPGGSLRLSCAASGFTFSNYGMSWIRQAPGKGLEWVSTISSGGGYTHYVDSVKGRFTISRDNAKNSLYLQMNSLRAEDTAVYYCARHPRDFSYAMDYWGQGTTVTVSS VL: EIVMTQSPATLSVSPGERATLSCRASQDVGHYLAWYQQKPGQAPRLLIYWASTRATGIPARFSGSGSGTEFTLTISSLQSEDFAVYYCQQYNIYPWTFGQGTKVEIK",1.1,

# More lines, now with the values ahead:
Kd [nM],binding result,Binder
,no binding,"grafted humanized 6E6: VH3-11*03 (IMGT) + VK1-8*01 (IMGT) (antibody, V domains shown, expressed as IgG) VH: QVQLLESGGGLVKPGGSLRLSCAASGFTFSNYGMSWIRQAPGKGLEWVSYISSGGGYTNYADSVKGRFTISRDNAKNSLYLQMNSLRAEDTAVYYCARHPRDFSYAMDYWGQGTTVTVSS VL: AIRMTQSPSSFSASTGDRVTITCRASQDVGHYLAWYQQKPGKAPKLLIYWASTLQSGVPSRFSGSGSGTDFTLTISCLQSEDFATYYCQQYNIYPWTFGQGTKVEIK"
,no binding,"grafted humanized 6E6: VH3-21*01 (IMGT) + VK1-12*01 (extended) (antibody, V domains shown, expressed as IgG) VH: EVQLVESGGGLVKPGGSLRLSCAASGFTFSNYGMNWVRQAPGKGLEWVSSISSGGGYTYYADSVKGRFTISRDNAKNSLYLQMNSLRAEDTAVYYCARHPRDFSYAMDYWGQGTTVTVSS VL: DIQMTQSPSSVSASVGDRVTITCKASQDVGHYVAWYQQKPGKAPKLLIYWASTRHTGVPSRFSGSGSGTDFTLTISSLQPEDFATYYCQQYNIYPWTFGQGTKVEIK"
,no binding,"grafted humanized 6E6: VH3-21*01 (IMGT) + VK3-15*01 (IMGT) (antibody, V domains shown, expressed as IgG) VH: EVQLVESGGGLVKPGGSLRLSCAASGFTFSNYGMNWVRQAPGKGLEWVSSISSGGGYTYYADSVKGRFTISRDNAKNSLYLQMNSLRAEDTAVYYCARHPRDFSYAMDYWGQGTTVTVSS VL: EIVMTQSPATLSVSPGERATLSCRASQDVGHYLAWYQQKPGQAPRLLIYWASTRATGIPARFSGSGSGTEFTLTISSLQSEDFAVYYCQQYNIYPWTFGQGTKVEIK"
,no binding,"grafted humanized 6E6: VH3-11*03 (extended) + VK1-12*01 (IMGT) (antibody, V domains shown, expressed as IgG) VH: QVQLLESGGGLVKPGGSLRLSCAASGFTFSNYGMSWIRQAPGKGLEWVSTISSGGGYTHYVDSVKGRFTISRDNAKNSLYLQMNSLRAEDTAVYYCARHPRDFSYAMDYWGQGTTVTVSS VL: DIQMTQSPSSVSASVGDRVTITCRASQDVGHYLAWYQQKPGKAPKLLIYWASSLQSGVPSRFSGSGSGTDFTLTISSLQPEDFATYYCQQYNIYPWTFGQGTKVEIK"
,no binding,"grafted humanized 6E6: VH3-21*01 (IMGT) + VK1-8*01 (IMGT) (antibody, V domains shown, expressed as IgG) VH: EVQLVESGGGLVKPGGSLRLSCAASGFTFSNYGMNWVRQAPGKGLEWVSSISSGGGYTYYADSVKGRFTISRDNAKNSLYLQMNSLRAEDTAVYYCARHPRDFSYAMDYWGQGTTVTVSS VL: AIRMTQSPSSFSASTGDRVTITCRASQDVGHYLAWYQQKPGKAPKLLIYWASTLQSGVPSRFSGSGSGTDFTLTISCLQSEDFATYYCQQYNIYPWTFGQGTKVEIK"
,no binding,"grafted humanized 6E6: VH3-21*01 (IMGT) + VK1-12*01 (IMGT) (antibody, V domains shown, expressed as IgG) VH: EVQLVESGGGLVKPGGSLRLSCAASGFTFSNYGMNWVRQAPGKGLEWVSSISSGGGYTYYADSVKGRFTISRDNAKNSLYLQMNSLRAEDTAVYYCARHPRDFSYAMDYWGQGTTVTVSS VL: DIQMTQSPSSVSASVGDRVTITCRASQDVGHYLAWYQQKPGKAPKLLIYWASSLQSGVPSRFSGSGSGTDFTLTISSLQPEDFATYYCQQYNIYPWTFGQGTKVEIK"
